Reference: US20160158154A1 (GEORGIA TECH RESEARCH, published 2016)

B1: His6-tagged ZE (peptide)
peptide: LEIEAAALEQENTALETEVAELEQEVQRLENIVSQYRTRYGPLRSHHHHHH
notes: It was co-expressed with ZR-ELP; also called His6ZE; His6-ZE
B2: ZR-ELP (arginine-rich leucine zipper motif ZR fused with an elastin-like polypeptide) (other)
chain: MKGSLEIRAAALRRRNTALRTRVAELRQRVQRLRNEVSQYETRYGPLGGGGSGGGGSGVPGVGVPGVGVPGFGVPGVGVPGVGVPGVGVPGVGVPGFGVPGVGVPGVGVPGVGVPGVGVPGFGVPGVGVPGVGVPGVGVPGVGVPGFGVPGVGVPGVGVPGVGVPGVGVPGFGVPGVGVPGVGVPGC
notes: Forms ZR/ZR homodimers when no ZE partner is present

Experiments:
[1] = target: B2; experiment: co-expression in E. coli
From the text: to prevent degradation during expression (Park W M, et al., Angew. Chem. Int. Ed., 52 (31), 8098-8101 (2013); Zhang K, et., Chem Bio Chem, 10 (16), 2617-2619 (2009)). Co-expressed ZR-ELP, i.e. the fusion peptide having an amino acid sequence of […](G₄S)₂G[(VPGVG)₂VPGFG(VPGVG)₂]₅VPGC (SEQ ID NO:27) and His₆ZE form a protein complex His₆ZE/ZR-ELP, which is resistant to proteolysis in the cytoplasm. All plasmids (pQE60-His₆ZE/ZR-ELP, pQE60-mCherry-ZE, and pQE60-EGFP-Z₅) were transformed into E. coli strain AFIQ-BL21 for expression. All cell cultures were grown at 37° C. in 2× yeast extract and tryptone (YT) media containing ampicillin (200 mg/L) and chloramphenicol (34 mg/L). When the cell culture optical density at 600 nm reached 0.8, protein expression was induced by 1.0 mM of isopropylβ-thiogalactoside (IPTG). Cells were harvested by centrifugation after 5 hours of expression at 37° C.

[2] = target: the molecule itself; experiment: solution at 4 C; circular dichroism confirmed the coiled coil
Protocol: The CD spectra of protein complexes were recorded on a Jasco J-810 spectropolarimeter (JASCO). Protein solution samples were prepared in PBS (pH 7.4), and measurements were performed in a 0.2 cm-length cuvette. The spectra were obtained in 1 nm increments within a wavelength range of 200-300 nm. Mean residue ellipticity was measured from protein solutions containing 5 μM of protein complexes at 4° C. Mean residue ellipticity was converted from accumulated spectra of five measurements for each sample. The peak at a wavelength of 222 nm indicated presence of α-helical coiled-coils of ZR/ZR and ZE/ZR.

binding result [1]	Binder	binding result [2]
binds	B1	–
–	B2	binds
